The results in this text go back to article doi:10.1101/838888.

This experiment has as its target superfolder GFP with strained-cyclooctyne pyrrolysine at residue 204 (sfGFP^204SCO) (Aequorea victoria) [GFP: P42212]. Kind of experiment: FRET or BRET.

“Venus with p-azido-L-phenylalanine at residue 204 (Venus^204azF) (from UniProt P42212 2-238)” gave an FRET efficiency of 86.8%.
